The Human Domainome abundance scans (Beltran et al. 2025)
± gives the uncertainty stated by the source.

B1: Mineralocorticoid receptor, residues 600 to 675; numbered along this chain, P08235 (parent)
chain: SKICLVCGDEASGCHYGVVTCGSCKVFFKRAVEGQHNYLCAGRNDCIIDKIRRKNCPACRLQKCLQAGMNLGARKS

Variants of: B1
Assay: abundance fitness (aPCA) (normalised: wild type 0, dead -1); higher = more abundant; growth selection in yeast, the domain comes from the species named
Details: Homo sapiens

| Variant | abundance fitness |
| --- | --- |
| SKICLVCGDEASGCHYGVVTCGSCKVFFKRAVWGQHNYLCAGRNDCIIDKIRRKNCPACRLQKCLQAGMNLGARKS [E33W] | -0.099 ± 0.08 |
| SKICLVCGDEASGCHYGVVTCGSCKVFFKRAVVGQHNYLCAGRNDCIIDKIRRKNCPACRLQKCLQAGMNLGARKS [E33V] | -0.01 ± 0.04 |
| SKICLVCGDEASGCHYGVVTCGSCKVFFKRAVYGQHNYLCAGRNDCIIDKIRRKNCPACRLQKCLQAGMNLGARKS [E33Y] | -0.088 ± 0.061 |
| SKICLVCGDEASGCHYGVVTCGSCKVFFKRAVEGQHQYLCAGRNDCIIDKIRRKNCPACRLQKCLQAGMNLGARKS [N37Q] | -0.017 ± 0.046 |
| SKICLVCGDEASGCHYGVVTCGSCKVFFKRAVEGQHPYLCAGRNDCIIDKIRRKNCPACRLQKCLQAGMNLGARKS [N37P] | -0.083 ± 0.041 |
| SKICLVCGDEASGCHYGVVTCGSCKVFFKRAVEGQHAYLCAGRNDCIIDKIRRKNCPACRLQKCLQAGMNLGARKS [N37A] | -0.027 ± 0.034 |
| SKICLVCGDEASGCHYGVVTCGSCKVFFKRAVEGQHDYLCAGRNDCIIDKIRRKNCPACRLQKCLQAGMNLGARKS [N37D] | -0.02 ± 0.047 |
| SKICLVCGDEASGCHYGVVTCGSCKVFFKRAVEGQHCYLCAGRNDCIIDKIRRKNCPACRLQKCLQAGMNLGARKS [N37C] | -0.036 ± 0.049 |
| SKICLVCGDEASGCHYGVVTCGSCKVFFKRAVEGQHRYLCAGRNDCIIDKIRRKNCPACRLQKCLQAGMNLGARKS [N37R] | 0.01 ± 0.03 |
| SKICLVCGDEASGCHYGVVTCGSCKVFFKRAVEGQHEYLCAGRNDCIIDKIRRKNCPACRLQKCLQAGMNLGARKS [N37E] | 0.068 ± 0.042 |
| SKICLVCGDEASGCHYGVVTCGSCKVFFKRAVEGQHIYLCAGRNDCIIDKIRRKNCPACRLQKCLQAGMNLGARKS [N37I] | -0.058 ± 0.058 |
| SKICLVCGDEASGCHYGVVTCGSCKVFFKRAVEGQHSYLCAGRNDCIIDKIRRKNCPACRLQKCLQAGMNLGARKS [N37S] | -0.043 ± 0.033 |
| SKICLVCGDEASGCHYGVVTCGSCKVFFKRAVEGQHHYLCAGRNDCIIDKIRRKNCPACRLQKCLQAGMNLGARKS [N37H] | -0.051 ± 0.051 |
| SKICLVCGDEASGCHYGVVTCGSCKVFFKRAVEGQHGYLCAGRNDCIIDKIRRKNCPACRLQKCLQAGMNLGARKS [N37G] | -0.061 ± 0.03 |
| SKICLVCGDEASGCHYGVVTCGSCKVFFKRAVEGQHVYLCAGRNDCIIDKIRRKNCPACRLQKCLQAGMNLGARKS [N37V] | 0.026 ± 0.036 |
| SKICLVCGDEASGCHYGVVTCGSCKVFFKRAVEGQHWYLCAGRNDCIIDKIRRKNCPACRLQKCLQAGMNLGARKS [N37W] | -0.23 ± 0.047 |
| SKICLVCGDEASGCHYGVVTCGSCKVFFKRAVEGQHTYLCAGRNDCIIDKIRRKNCPACRLQKCLQAGMNLGARKS [N37T] | -0.029 ± 0.04 |
| SKICLVCGDEASGCHYGVVTCGSCKVFFKRAVEGQHKYLCAGRNDCIIDKIRRKNCPACRLQKCLQAGMNLGARKS [N37K] | 0.031 ± 0.051 |

| Variant | abundance fitness |
| --- | --- |
| SKICLVCGDEASGCHYGVVTCGSCKVFFKRAVEGQHMYLCAGRNDCIIDKIRRKNCPACRLQKCLQAGMNLGARKS [N37M] | -0.076 ± 0.059 |
| SKICLVCGDEASGCHYGVVTCGSCKVFFKRAVEGQHFYLCAGRNDCIIDKIRRKNCPACRLQKCLQAGMNLGARKS [N37F] | -0.264 ± 0.075 |
| SKICLVCGDEASGCHYGVVTCGSCKVFFKRAVEQQHNYLCAGRNDCIIDKIRRKNCPACRLQKCLQAGMNLGARKS [G34Q] | -0.043 ± 0.099 |
| SKICLVCGDEASGCHYGVVTCGSCKVFFKRAVEAQHNYLCAGRNDCIIDKIRRKNCPACRLQKCLQAGMNLGARKS [G34A] | -0.099 ± 0.06 |
| SKICLVCGDEASGCHYGVVTCGSCKVFFKRAVEFQHNYLCAGRNDCIIDKIRRKNCPACRLQKCLQAGMNLGARKS [G34F] | 0.071 ± 0.085 |
| SKICLVCGDEASGCHYGVVTCGSCKVFFKRAVEVQHNYLCAGRNDCIIDKIRRKNCPACRLQKCLQAGMNLGARKS [G34V] | -0.102 ± 0.049 |
| SKICLVCGDEASGCHYGVVTCGSCKVFFKRAVESQHNYLCAGRNDCIIDKIRRKNCPACRLQKCLQAGMNLGARKS [G34S] | -0.074 ± 0.048 |
| SKICLVCGDEASGCHYGVVTCGSCKVFFKRAVELQHNYLCAGRNDCIIDKIRRKNCPACRLQKCLQAGMNLGARKS [G34L] | -0.131 ± 0.06 |
| SKICLVCGDEASGCHYGVVTCGSCKVFFKRAVEWQHNYLCAGRNDCIIDKIRRKNCPACRLQKCLQAGMNLGARKS [G34W] | -0.165 ± 0.092 |
| SKICLVCGDEASGCHYGVVTCGSCKVFFKRAVECQHNYLCAGRNDCIIDKIRRKNCPACRLQKCLQAGMNLGARKS [G34C] | -0.151 ± 0.099 |
| SKICLVCGDEASGCHYGVVTCGSCKVFFKRAVEHQHNYLCAGRNDCIIDKIRRKNCPACRLQKCLQAGMNLGARKS [G34H] | -0.078 ± 0.069 |
| SKICLVCGDEASGCHYGVVTCGSCKVFFKRAVEMQHNYLCAGRNDCIIDKIRRKNCPACRLQKCLQAGMNLGARKS [G34M] | -0.098 ± 0.092 |
| SKICLVCGDEASGCHYGVVTCGSCKVFFKRAVETQHNYLCAGRNDCIIDKIRRKNCPACRLQKCLQAGMNLGARKS [G34T] | -0.064 ± 0.056 |
| SKICLVCGDEASGCHYGVVTCGSCKVFFKRAVENQHNYLCAGRNDCIIDKIRRKNCPACRLQKCLQAGMNLGARKS [G34N] | 0.042 ± 0.08 |
| SKICLVCGDEASGCHYGVVTCGSCKVFFKRAVEIQHNYLCAGRNDCIIDKIRRKNCPACRLQKCLQAGMNLGARKS [G34I] | -0.103 ± 0.087 |
| SKICLVCGDEASGCHYGVVTCGSCKVFFKRAVEEQHNYLCAGRNDCIIDKIRRKNCPACRLQKCLQAGMNLGARKS [G34E] | -0.013 ± 0.089 |
| SKICLVCGDEASGCHYGVVTCGSCKVFFKRAVERQHNYLCAGRNDCIIDKIRRKNCPACRLQKCLQAGMNLGARKS [G34R] | 0.032 ± 0.054 |
| SKICLVCGDEASGCHYGVVTCGSCKVFFKRAVEKQHNYLCAGRNDCIIDKIRRKNCPACRLQKCLQAGMNLGARKS [G34K] | -0.104 ± 0.073 |
